B1: Pistol ribozyme (parent)
chain: GGGUCGUUGUUCCAUAAUCGCGUGGAUAUGGCACGCAAGUUUCUACCGGGCACCGUAAAUGUCCGACUGGAGCCGUUCGGGCGGCUAUAAACAGACCUCAGGCCCGAAGCGUGGCGGCACCUGCCGCCGGUGGUAAAAAAGAUCGGAAGAGCACACGUCU

Variants of: B1
Assay: aptazyme ON/OFF ratio, guanine; higher = stronger switching; co-transcriptional cleavage with and without guanine

Variant | aptazyme ON/OFF ratio
U7G U8G G9U U10G C13G | 1.21
U7G U8G G9U U10G C13A | 1.27
U7G U8G G9U U10G C13U | 1.36
U7G U8G G9U U11A C13U | 1.38
U7G U8G G9U U11A C13G | 1.09
U7G U8G G9U U11A C13A | 1.33
U7G U8G G9U U10G U11A C12A C13U | 1.18
U7G U8G G9U U10G U11A C12A C13G | 1.06
U7G U8G G9U U10G U11A C12A C13A | 1.07
U7G U8G U10A U11C C12A C13G | 1.23
U7G U8G U10A U11C C12A C13A | 1.34
U7G U8G U10A U11C C12A C13U | 1.47
U7G U8G G9U U11A | 2.18
U7G U8G G9U U11C | 3.17
U7G U8G G9U U11G | 2.02
U7G U8G G9U U10G U11C C12G | 1.11
U7G U8G G9U U10G U11C C12U | 1.04
U7G U8G G9U U10G U11C C12A | 1.13
U7G U8G U10A U11C C12G C13G | 1.11
U7G U8G U10A U11C C12G C13U | 1.29
U7G U8G U10A U11C C12G C13A | 1.16

Variant | aptazyme ON/OFF ratio
U7G U8G G9U U10G U11C C12G C13G | 1.05
U7G U8G G9U U10G U11C C12G C13U | 1.14
U7G U8G G9U U10G U11C C12G C13A | 1.1
U7G U8G G9U U10G U11C C12U C13U | 1.03
U7G U8G G9U U10G U11C C12U C13A | 1.06
U7G U8G G9U U10G U11C C12U C13G | 1.19
U7G U8G G9U U11G C12U C13G | 1.2
U7G U8G G9U U11G C12U C13A | 1.07
U7G U8G G9U U11G C12U C13U | 1.27
U7G U8G U10A U11C C12G | 1.25
U7G U8G U10A U11C C12U | 1.42
U7G U8G U10A U11C C12A | 1.4
U7G U8G U10A U11G | 1.65
U7G U8G U10A U11C | 1.09
U7G U8G U10A U11A | 2.25
U7G U8G U10A U11G C12U | 1.38
U7G U8G U10A U11G C12G | 1.2
U7G U8G U10A U11G C12A | 1.16
U7G U8G U10A U11A C12U C13A | 1.44
U7G U8G U10A U11A C12U C13G | 1.22
U7G U8G U10A U11A C12U C13U | 1.15

Variant | aptazyme ON/OFF ratio
U7G U8G U10A C12U C13A | 1.16
U7G U8G U10A C12U C13G | 1.18
U7G U8G U10A C12U C13U | 1.09
U7G U8G G9U U10G U11G C12A | 1.13
U7G U8G G9U U10G U11G C12U | 1.18
U7G U8G G9U U10G U11G C12G | 1.16
U7G U8G G9U U11A C12G C13G | 1.06
U7G U8G G9U U11A C12G C13A | 1.15
U7G U8G G9U U11A C12G C13U | 1.16
U7G U8G U10A C12A C13U | 1.33
U7G U8G U10A C12A C13G | 1.3
U7G U8G U10A C12A C13A | 1.18
U7G U8G U10A C13A | 1.34
U7G U8G U10A C13U | 1.36
U7G U8G U10A C13G | 1.29
U7G U8G U10A U11G C12U C13A | 1.23
U7G U8G U10A U11G C12U C13G | 1.36
U7G U8G U10A U11G C12U C13U | 1.22
U7G U8G U10A U11A C13U | 1.35
U7G U8G U10A U11A C13G | 1.21
U7G U8G U10A U11A C13A | 1.33

Variant | aptazyme ON/OFF ratio
U7G U8G G9U U11G C12G C13A | 1.05
U7G U8G G9U U11G C12G C13U | 1.22
U7G U8G G9U U11G C12G C13G | 1.14
U7G U8G G9U U11A C12A C13U | 1.18
U7G U8G G9U U11A C12A C13A | 1.07
U7G U8G G9U U11A C12A C13G | 1.13
U7G U8G U10A U11A C12A C13G | 1.22
U7G U8G U10A U11A C12A C13A | 1.31
U7G U8G U10A U11A C12A C13U | 1.21
U7G U8G G9U U10G C12U C13U | 1.2
U7G U8G G9U U10G C12U C13A | 1.17
U7G U8G G9U U10G C12U C13G | 1.21
U7G U8G G9U U11G C12A C13G | 1.12
U7G U8G G9U U11G C12A C13A | 1.1
U7G U8G G9U U11G C12A C13U | 1.16
U7G U8G U10A U11C C13G | 1.25
U7G U8G U10A U11C C13U | 1.08
U7G U8G U10A U11C C13A | 1.27
U7G U8G G9U U10G U11C C13A | 1.18
U7G U8G G9U U10G U11C C13U | 1.11
U7G U8G G9U U10G U11C C13G | 1.17
